Source: the DeepSol protein solubility set

Experiment: soluble on expression in E. coli; label from the status in PepcDB or PDB records
In the case of “MSLSEAGYPRKVMQHAEELHERILSFDSRITVPLDFGTTGNEVDKDGPGQLDLVKAGRGRLSGAALAIFGWPEMWNGPNAPHKPTPGFVDEARHQQEIRYKILTGMVRDFPNQVGIAYSPEDFRRLAMEGKFAIVMSMLNAYPLGDDLSQLDKWAARGVRMFGFSYVGNNDWADSSRPLPFFNDSPDALGGLSPLGKQAVERLNDLGVIIDVSQMSTKALEQVAALSRAPIVASHSAPRALVDIKRNLSDHEMQLIKDSGGVIQVVGFPAYLRPLSKPTLDKLDALRARFDLPPLEGLDYALMPGDPIITIWPEQRFGEYASALYGILEEEPKAGLKELVDAIDYTVKKVGIDHVGISSDFNDGGGVDGWKDVSEIRNVTAELITRGYSDADIAKLWGGNFLRAWGEVQNAPSRQPPPKGIITITTDPNSSSVDKLAAALEHHHHHH”, the “soluble on expression in E. coli” value is reported as “soluble”.
For “MSLSEDLRFFEFFAGGGMARAGLGNQWQCLFANDMDRIKASTYIQNWGKDHFDSRDIREVNSEDLERNGDLAWASFPCQDLSVAGNGLGIGSSSAKDFTRSGALWPFLDLIDTLRQEERQPPLLVLENVVGLLTLEGGRDFAAICERLGEIGYRYGAVIIDAKHFLPQSRPRVFIIAVQRNIDIPCKLSRGMATANWHTPTLLRAYKSLTPILHADWVWWELGDAPILQENALESFIQREGVLWNTPEETKRIISMMAPAHLARLENAKCAGGVAVGSLYLRMRREGGINKQRAEITFSPLLGCLRTPRGGASRPRIIVVESGHVRTRLLTICEAARLMGLANTYILPEIYHHAFKVIGDGVAVPAVRFLAERLLEPLAIAARGQIAIPHEKAFMAEGHHHHHH”, the “soluble on expression in E. coli” value was “soluble”.
In the case of “MSLSENTTKVVQLNSHLTAPGQVTDELQSLTRMPAAFVETKDKGKQALRPLLQALFDNIDDALFELADRAEHNAEQNMFFESMREVRIKRRGMELCFGQELDNRFRLLLTDDAPRAKSSADDPRLAVDSLSLIANEELEELVAADTMIIKAEGEFTDSLSQLTTRIDTLVHPLEVTDKTNPFGPTSVCQSFVGVCKTLDMDIRAKLVLFKLFDRYVMNGLGDVYAACNEVLVNNGILPGLAKGRTTAARADSNIQQPPAASGTVDVFAQLQTLLHGLPQHTAGIETSGLVAVGQAPQIPRDTLMTLLQSVQLSLAPQLDQQLQAALQGVGPQQLDIQQSLSNLLSAKLPSKPMSIGQVESDALNLVAMLFQFILDDRNLAAPMKALIARLQIPFIKAAMIDSSFFTKGGHPARRLLNEIASASLGWVAIGIVDRDPLYAKVSSIVTRIQREFDGDSRLFQDVLTDFVAFLDMDKRRIGLVEQRTINAEDGKAKSEQARTAVQTALNERVAGLSLPKVVISLLEQAWSNVLFLIYLKEGDQAENWQEGLNVVDDLLWSVQPMDSADSRHRLVTMVPPLLKNVRAGLTKIGYNPFEMNQLFTDLEVVHLSQLQALNTVKLDMTASEGHHHHHH”, the “soluble on expression in E. coli” value is reported as “not soluble”.
In the case of “MSLSEVLDLDGELNLLVWNIYKQNRANWSTQLTELSRDQQLLLLQEANMTPAFKEWIHQLGWDGTQARAFEAFGETAGVINLAKVMPTMACAYTQLEPWLRLPKSAIYARYRLSDGQELVVVNLHAVNFTYGTQEYQQQLIALLDELRDFTGPVIVAGDFNSWSEARMALLSTQLASVGLQEVRFSPDNRTTFINGLPLDHVFYRGLQLEKAEAPISDASDHNPLLVRFRLLNEGHHHHHH”, the “soluble on expression in E. coli” value is reported as “soluble”.
For “MSLSGKLTYKELIIEVLKQTKKPLNVSEIWQKALEKGLDKKLSSIGQTPTQTIWNRLLTDKINFLKTSIKPTTFWLKERENELLKLDNKNEITNEKQEKNKFHERDLHPLLVKFLYENLDFNLNCKTIYHEQSKKGKGGEDKWNYPDIVGVYFPYDDYEKETITLLENIKQNSYKLFSFELKIALNFSNLKECYFQAVSNSSWANEGYLVVLQEIDSEVLSELRRLNQSFGIGVIKLEKDISNSQILISAKEKELDIQTLNMLINKNPNFKEFIDDINKQIKVGKEAKIQANFDEIKSDEEMEKYLKEKCILEKEGHHHHHH”, the “soluble on expression in E. coli” value was “soluble”.
In the case of “MSLSGYAQTTKSEKIDKKLDSIYLKRENYVVSARDKLTIFIFSTRYLNGKLFTNPGIDNYYFPIAPLNIGLGFSHKWLAVNIAILSPKLGKSNYDNSQSKYQNFNLQALAYTPKYGVDIFYSQNLGYFLGNYNGYIDVANAPDKTPYFDMKTNRFTINLLRVFNPVKYSMNATMIGGEMQKNSSSSFIINTSFSLSKFRMSDSIPAFILDQMNQEAIFKGGTFYSISVLPGYGFTWIFSKRFYLGIIPGFGPSFQYKSMTFEDEHENKVAISYRIIAKAGAGFHAKRWTAGISVLYDNERYHLGSKTNIFNNNGKVILKVGYKINVPNWGKGLSKKMSTMQNKFEHTLHNEGHHHHHH”, the “soluble on expression in E. coli” value is reported as “not soluble”.
In the case of “MSLSHRPVINASVSPKGTLETLSQREVQQLSETANGKTYQLFRQCAPAILNTGAHSDNAKTILDAYKDFEVRIHQQDRGVRLELINAPADAFVDGEMIASTREMLFSALRDIVYTQSGLDSQHVDLDSSQGLTDYVFQLLRNARTLRPGVEPKIVVCWGGHSISSEEYKYTKRVGHELGLRSLDVCTGCGPGVMKGPMKGATISHAKQRIVGGRYLGLTEPGIIAAEAPNPIVNELVILPDIEKRLEAFVRVGHGVIIFPGGAGTAEEFLYLLGILMHPDNQDLPFPVILTGPRSAEAYLQQLHEFVGATLGHAAQRHYRIVIDDPAEVAKQMAQGLKEVKQFRRERNDAFHFNWMLKIDESFQRPFEPTHENMASLQLSRSLPPHELAANLRRAFSGIVAGNVKDNGIRMIEQYGPYEIHGDPAVMLPLDRLLQAFVKQHRMKLPGGAAYVPCYRVVQTEAAEGHHHHHH”, the “soluble on expression in E. coli” value is reported as “soluble”.
With “MSLSHTLKSKTLQELDIEEIKETNPLLKLVQGQRIVQVPELVLESGVVINNFPIAYKTWGTLNEAGDNVLVICHALTGSADVADWWGPLLGNDLAFDPSRFFIICLNSMGSPYGSFSPLTINEETGVRYGPEFPLCTVRDDVRAHRIVLDSLGVKSIACVIGGSMGGMLSLEWAAMYGKEYVKNMVALATSARHSAWCISWSEAQRQSIYSDPNYLDGYYPVEEQPVAGLSAARMSALLTYRTRNSFENKFSRRSPSIAQQQKAQREETRKPSTVSEHSLQIHNDGYKTKASTAIAGISGQKGQSVVSTASSSDSLNSSTSMTSVSSVTGEVKDIKPAQTYFSAQSYLRYQGTKFINRFDANCYIAITRKLDTHDLARDRVDDITEVLSTIQQPSLIIGIQSDGLFTYSEQEFLAEHIPKSQLEKIESPEGHDAFLLEFKLINKLIVQFLKTNCKAITDAAPRAWGGDVGNDETKTSVFGEAEEVTNWEGHHHHHH” the “soluble on expression in E. coli” value was “soluble”.
With “MSLSIPERKEFTKLYDVYDEITSKYYKDTNSTTMIDGAISGMVNSLDDPYSTFMSKKESSEFNDTISASFEGIGAEIQEKDGAIVIVSPIKNSPAEKAGLRPQDIITQVDGKSVKGDTATEATQKIRGEKGTKVTLTIQRSNEDKPFDVTITRDEIPIETVYKEMGSDKIAHVTISTFSETTYDELEKALKSLEKDGMKGLVLDLRGNPGGLLDQAVSISSLFVPDGKIVVQEQDKDGDKSAIKADSSSHGDYKVKVPTTMLIDGGSASASEILAAAAKESGGIKLVGTKSFGKGTVQTATTLSDDSTLKLTVAKWLTPNSEWIHEKGITPDVVVNMPDYATMTIPSSTKVYKNGDFGDDVKTIETLLKALDYNVGKVDGLYDTDTEYAVQRFQTANKLDVTGIMTGVTTDKLVELTQKHLKETDPQLQKAKALVKEGHHHHHH” the “soluble on expression in E. coli” value was “soluble”.
With “MSLSITSDLIATANSGIWTDSEMLECCAVVPEAPDTVTISFVSPSGNLFKYEPGQFLTLELPVPGGPLYRTYTISSSPSRPLSLSITVKAQPGSIGTRWMLEKLMPGMRVKAIGPAGQFTLDTTARKKKYLFISAGSGVTPTLAMTTYLYDRGTDIDVSIINCARRPGEIIGRRSLAAMASRVPSIKLTFIVEEDDPFQVWTGLRGRLNQIMIGIVAGDYLERDIYCCGPEPFMDAVREMLIGLGYDMSRYSQESFSAPAETAEDVPDLDDVTPDESVAAQITFVSSKVTAGCTETDTVLAVARGAGLNIPSGCTFGVCGTCKIRKTKGEVHMVHNGGISEDDIADGYILACCSKPVGQVEVDIEGHHHHHH” the “soluble on expression in E. coli” value was “soluble”.
In the case of “MSLSKLDIPLSIMQKSVVIRPGGRQEMDEHVAIETPYAIALNDRVIGSSMVLPVDLEEFGAGFLFGQGYIKKAEEIREILVCPQGRISVYADVENEEPREVIITSGCGGTGKIPKEMLEGEFAPLADYCLPFAEIKSFIREALHSSPLGPQTHCVHGCGLWNNGRLQVYHEDVGRHNAVDKVLGSILLGRASNNSAVYTTGRLTSDMVLKCARIGIPIIMSRTSPSSLGLALAKRSGATLVAYSRPERINVFNAPERILTEGHHHHHH”, the “soluble on expression in E. coli” value is reported as “soluble”.
For “MSLSLRVRQIDRREWLLAQTATECQRHGREATLEYPTRQGMWVRLSDAEKRWSAWIKPGDWLEHVSPALAGAAVSAGAEHLVVPWLAATERPFELPVPHLSCRRLCVENPVPGSALPEGKLLHIMSDRGGLWFEHLPELPAVGGGRPKMLRWPLRFVIGSSDTQRSLLGRIGIGDVLLIRTSRAEVYCYAKKLGHFNRVEGGIIVETLDIQHIEEENNTTETAETLPGLNQLPVKLEFVLYRKNVTLAELEAMGQQQLLSLPTNAELNVEIMANGVLLGNGELVQMNDTLGVEIHEWLSESGNGEEGHHHHHH”, the “soluble on expression in E. coli” value was “soluble”.
In the case of “MSLSNDTVSGPSMQPSFENGQRLISVRHAQIKRGEVVIVKAPDEPGALYIKRVIGMPGEKIVSKNNQIYINNKKLSQPWLTQGKKMIDAGSDTFYSATQNFTMKSLARSRQFQQYYTKSQLNYINKYNRIPKETYFVMGDHRSVSKDSRYIGTIKRKNVVGVVKLRYWPLNEFKIYEGHHHHHH”, the “soluble on expression in E. coli” value is reported as “not soluble”.
For “MSLSQFKPTWMVKNIYDLTPAQLRANGIKVILTDLDNTLIAWNNPDGTPELRHWLTLLELAGIRVIVVSNNNRKRVDRAVAPFNLDYIHRALKPLSWGILRALRRWHLNRDEVVMVGDQLLTDVWAAHHSGVRSVLVKPILKSDAWVTKGNRLMEKVVMWRLRHNYPELTWQEDLDERKAHEGHHHHHH”, the “soluble on expression in E. coli” value was “soluble”.
With “MSLSQPIYKRILLKLSGEALQGEDGLGIDPAILDRMAVEIKELVEMGVEVSVVLGGGNLFRGAKLAKAGMNRVVGDHMGMLATVMNGLAMRDSLFRADVNAKLMSAFQLNGICDTYNWSEAIKMLREKRVVIFSAGTGNPFFTTDSTACLRGIEIEADVVLKATKVDGVYDCDPAKNPDAKLYKNLSYAEVIDKELKVMDLSAFTLARDHGMPIRVFNMGKPGALRQVVTGTEEGTTICEGHHHHHH” the “soluble on expression in E. coli” value was “soluble”.
For “MSLSQYAEMSLVYDQLTQDQPYEKWFEIVKNHCKDESNILDIGCGTGSLTVQLEALGNVTGMDLSVDMLTVAAQKSANVNWLEGDMTSFDLQQQFDIITIFCDSLNYLQDETAVIETFINVYHHLTDSGVFIFDVHTVYKMMTLFNNQSYIDDKGDIFLAWDAVQGDLPLSVYHDMTFFIRHEDETYSRFDESHFQRTFDEKTYLSWLAQVGFKHVETFTDFNIDEHNEDTERLFFIAKKEGHHHHHH”, the “soluble on expression in E. coli” value was “soluble”.
In the case of “MSLSSANGGHVDQSDHLALLPPNVRKKGRPTLVLDLDATLFYTSAELLNTPLDYFDMGEESTYRYLYLRPYALDFLGWASTVFEVIIWTAAMESYAEPRIRATEIDRYADVVLYRGACDMIDGSLVKNLAKLGRPLSDMIIVDDNPVSYALNVELAYPIPPFSGEEDDLELLRLVPILRKVLELSSLKRGIYKTIFSEGHHHHHH”, the “soluble on expression in E. coli” value is reported as “soluble”.
With “MSLSSARFDSSDRSAWYMGPVSRQEAQTRLQGQRHGMFLVRDSSTCPGDYVLSVSENSRVSHYIINSLPNRRFKIGDQEFDHLPALLEFYKIHYLDTTTLIEPAPRYPSPPMGSVSAPNLPTAEDNLEYVRTLYDFPGNDAEDLPFKKGEILVIIEKPEEQWWSARNKDGRVGMIPVPYVEKLVRSSPHGKHGNRNSNSYGIPEPAHAYAQPQTTTPLPAVSGSPGAAITPLPSTQNGPVFAKAIQKRVPCAYDKTALALEVGDIVKVTRMNINGQWEGEVNGRKGLFPFTHVKIFDPQNPDENEGHHHHHH” the “soluble on expression in E. coli” value was “soluble”.
